Measured values published in patent publication US20220211826A1.
Blank lines part the entries; values can stand above or below the substance they belong to.

Columns and labels:
[1] = molecular target: PD-L1 expressed by hepatocytes of C57BL/6 mice (mouse) (UniProt Q9EP73); assay: cell-based or functional assay
[2] = molecular target: H-2Kb/SIINFEKL pMHC complex on primary hepatocytes (mouse); assay: cell-based or functional assay

UniProt Q9EP73, sequence (Q9EP73 19-290): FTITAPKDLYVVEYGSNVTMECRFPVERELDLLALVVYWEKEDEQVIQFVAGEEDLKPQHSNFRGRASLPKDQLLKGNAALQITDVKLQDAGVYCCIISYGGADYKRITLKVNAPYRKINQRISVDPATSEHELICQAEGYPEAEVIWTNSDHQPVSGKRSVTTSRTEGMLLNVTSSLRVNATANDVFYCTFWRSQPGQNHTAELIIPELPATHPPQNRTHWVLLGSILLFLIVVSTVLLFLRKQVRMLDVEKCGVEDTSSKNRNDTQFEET

- frequency of IFN-γ+ OT-I cells after OVA/LPS challenge, αPD-L1-treated hepatocytes [1]: 47.1%
- frequency of IL-2+ OT-I cells after OVA/LPS challenge, αPD-L1-treated hepatocytes [1]: 7.53%
Substance: αPD-L1 blocking Ab (BioxCell, clone 10F.9G2) (antibody)
- frequency of CD45.1+ OT-I cells among viable CD3+CD8+ lymphocytes in dLNs, mice given pGal-OVA- and αPD-L1-treated hepatocytes [1]: 0.45%

- frequency of dLN IFN-γ+ OT-I cells, pGal-OVA and isotype control antibody-treated hepatocytes [1]: 29.2%
- frequency of dLN IL-2+ OT-I cells, pGal-OVA and isotype control antibody-treated hepatocytes [1]: 4.21%
Substance: rat IgG isotype control Ab (Abcam) (antibody)
- frequency of CD45.1+ OT-I cells among viable CD3+CD8+ lymphocytes in dLNs, mice given hepatocytes treated with pGal-OVA and isotype control antibody [1]: 0.2%

- CD69+ OT-I cells after 24 hr co-culture with hepatocytes incubated with pGal-OVA alone [2]: 17%
- CD69+ OT-I cells after 24 hr co-culture with hepatocytes treated with pGal-OVA and MG132 [2]: 3.98%
- CD69+ OT-I cells after 24 hr co-culture with hepatocytes treated with pGal-OVA and chloroquine [2]: 7.38%
Substance: T cell receptor of OT-I cells (transgenic CD8+ T cells specific for H-2Kb/SIINFEKL) (TCR)
